# Laboratory results reported in US8734776B2 (ZymoGenetics, Inc., priority 2003, dated 2014).
# B1: zcyto24: mouse IL-28, SEQ ID NO:8 (protein, listed as Mus musculus)
# chain: MKPETAGGHMLLLLLPLLLAAVLTRTQADPVPRATRLPVEAKDCHIAQFKSLSPKELQAFKKAKDAIEKRLLEKDLRCSSHLFPRAWDLKQLQVQERPKALQAEVALTLKVWENMTDSALATILGQPLHTLSHIHSQLQTCTQLQATAEPRSPSRRLSRWLHRLQEAQSKETPGCLEASVTSNLFRLLTRDLKCVANGDQCV
# modifications: SIGNAL (1)...(28)
# Legend:
# [1] = tested on: encephelomyocarditis virus; assay: Antiviral assay: cytopathic effect in HeLa cells; assay type: cell-based, human
# [2] = tested on: encephelomyocarditis virus; assay: Antiviral assay: cytopathic effect in L929 cells; assay type: cell-based, mouse
# [3] = tested on: Mouse B cells; assay: Mouse B cell 3H-thymidine incorporation; assay type: cell-based
# Experimental: Mouse B cells were isolated from 2 Balb/C spleens (7 months old) by depleting CD43+ cells using MACS magnetic beads. Purified B cells were cultured in vitro with LPS, anti-IgM or anti-CD40 monoclonal antibodies. Mouse IL-28 or mouse IFNα was added to the cultures and ^3H-thymidine was added at 48 hrs. and ^3H-thymidine incorporation was measured after 72 hrs. culture.
# [4] = tested on: AML-12 cells; assay: ISG induction in mouse liver cell line AML-12 (real-time PCR); assay type: cell-based; details: 20 ng/ml, 48 hour time point
# [5] = tested on: adenoviral vector, AdGFP; assay: Adenoviral (AdGFP) liver pathology in mice; assay type: in vivo, mouse; details: C57Bl/6 mice
# Experimental: When injected intravenously, these viruses primarily target the liver for gene expression. The adenoviruses are replication deficient, but cause liver damage due to inflammatory cell infiltrate that can be monitored by measurement of serum levels of liver enzymes like AST and ALT, or by direct examination of liver pathology.
# C57B116 mice were given once daily intraperitoneal injections of 50 μg mouse IL-28 (zcyto24 as shown in SEQ ID NO:8) or metIL-29C172S—PEG for 3 days. Control animals were injected with PBS. One hour following the 3rd dose, mice were given a single bolus intravenous tail vein injection of the adenoviral vector, AdGFP (1×10^9 plaque-forming units (pfu)). Following this, every other day mice were given an additional dose of PBS, mouse IL-28 or metIL-29C172S—PEG for 4 more doses (total of 7 doses). One hour following the final dose of PBS, mouse IL-28 or metIL-29C172S—PEG mice were terminally bleed and sacrificed. The serum and liver tissue were analyzed. Serum was analyzed for AST and ALT liver enzymes. Liver was isolated and analyzed for GFP expression and histology. For histology, liver specimens were fixed in formalin and then embedded in paraffin followed by H&E staining. Sections of liver that had been blinded to treat were examined with a light microscope. Changes were noted and scored on a scale designed to measure liver pathology and inflammation.
# [6] = tested on: ISRE signaling in HepG2 cells; details: 100 ng/ml; 4-hour
molecule,measurement,setting,value
B1,Percentage Cytopathic Effect,[1]; relative CM concentration .008X,0%
same,Percentage Cytopathic Effect,[1]; relative CM concentration .0156X,0%
same,Percentage Cytopathic Effect,[1]; relative CM concentration .0325X,0%
same,Percentage Cytopathic Effect,[1]; relative CM concentration .0625X,0%
same,Percentage Cytopathic Effect,[1]; relative CM concentration .125X,0%
same,Percentage Cytopathic Effect,[1]; relative CM concentration .25X,0%
same,Percentage Cytopathic Effect,[1]; relative CM concentration .5X,0%
same,Percentage Cytopathic Effect,[2]; relative CM conc. .008X,87%
same,Percentage Cytopathic Effect,[2]; relative CM conc. .0156X,87%
same,Percentage Cytopathic Effect,[2]; relative CM conc. .0325X,87%
same,Percentage Cytopathic Effect,[2]; relative CM conc. .0625X,87%
same,Percentage Cytopathic Effect,[2]; relative CM conc. .125X,87%
same,Percentage Cytopathic Effect,[2]; relative CM conc. .25X,87%
same,Percentage Cytopathic Effect,[2]; relative CM conc. .5X,87%
same,3H-thymidine incorporation by mouse B cells,"[3]; stimulated with LPS or anti-IgM, IFNα 10 ng/ml, mouse IL-28 any concentration including 1000 ng/ml",did not inhibit
same,3H thymidine incorporation by mouse B cells,[3]; stimulated with anti-CD40 MAb,increased
same,Mx1 expression relative to HPRT,[4],0.08
same,OAS expression relative to HPRT,[4],0.04
same,PkR expression relative to HPRT,[4],0.02
same,liver histology: liver and inflammation scores versus PBS-treated group,[5],lower liver and inflammation scores
same,average serum AST,"[5]; 50 μg i.p., 7 doses, n=8",193 U/L
same,relative liver fluorescence,"[5]; 50 μg i.p., 7 doses, n=8",34.5 arbitrary units
same,serum ALT,"[5]; 50 μg i.p., 7 doses, n=8",216 U/L
same,Fold Induction of Cytokine-dependent ISRE Signaling in HepG2 Cells,[6],4.7 fold
